Experimental data from publication PMC3561853 (Journal of Cell Science, 2012).
Where a SMILES comes first, the peptide text is derived from it. Where no end group is shown, it is not given here. [ ]: non-standard residue; d: D form. pY = N[C@@H](Cc1ccc(OP(=O)(O)O)cc1)C(=O)O

T1: SH2-SH3B fragment of Vav1 (669–845) (Mus musculus, UniProt P27870)
T1 sequence (P27870 669-845): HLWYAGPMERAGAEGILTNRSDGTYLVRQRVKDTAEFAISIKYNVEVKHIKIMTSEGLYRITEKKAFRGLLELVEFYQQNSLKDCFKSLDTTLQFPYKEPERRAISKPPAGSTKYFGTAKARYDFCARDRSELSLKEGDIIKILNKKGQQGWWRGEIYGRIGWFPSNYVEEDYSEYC

T2: SH3A-SH2 fragment of Vav1 (596–771) (Mus musculus, UniProt P27870)
T2 sequence (P27870 596-771): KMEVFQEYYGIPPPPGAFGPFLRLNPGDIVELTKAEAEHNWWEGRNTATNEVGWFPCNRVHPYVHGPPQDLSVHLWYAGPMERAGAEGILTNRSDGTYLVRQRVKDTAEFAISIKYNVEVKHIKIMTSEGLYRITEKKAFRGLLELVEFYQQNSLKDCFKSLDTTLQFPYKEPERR

T3: SH3A-SH2 fragment of Vav1 (596-771) (mouse, UniProt P27870 596-771)
T3 sequence (looked up): T2 sequence (P27870 596-771)

B1: SH2 domain of Vav1 (669-771) (domain or fragment, mouse, UniProt P27870 669-771, looked up)
chain: HLWYAGPMERAGAEGILTNRSDGTYLVRQRVKDTAEFAISIKYNVEVKHIKIMTSEGLYRITEKKAFRGLLELVEFYQQNSLKDCFKSLDTTLQFPYKEPERR
B2: SH3A-SH2-SH3B fragment of Vav1 (596-845) (domain or fragment, mouse, UniProt P27870 596-845, looked up)
chain: KMEVFQEYYGIPPPPGAFGPFLRLNPGDIVELTKAEAEHNWWEGRNTATNEVGWFPCNRVHPYVHGPPQDLSVHLWYAGPMERAGAEGILTNRSDGTYLVRQRVKDTAEFAISIKYNVEVKHIKIMTSEGLYRITEKKAFRGLLELVEFYQQNSLKDCFKSLDTTLQFPYKEPERRAISKPPAGSTKYFGTAKARYDFCARDRSELSLKEGDIIKILNKKGQQGWWRGEIYGRIGWFPSNYVEEDYSEYC
B3: SH2-SH3B fragment of Vav1 (669-845) (domain or fragment, mouse, UniProt P27870 669-845, looked up)
chain: T1 sequence (P27870 669-845)

What was measured:
[1] = biological target: T1, SH2-SH3B fragment of Vav1 (669–845); assay: Isothermal titration calorimetry; format: binding
[2] = biological target: T2, SH3A-SH2 fragment of Vav1 (596–771); assay: Isothermal titration calorimetry; format: binding
[3] = biological target: SLP76 2pY peptide (pY112 and pY128) (mouse, phosphotyrosine at Y112 and at Y128 (EDDp…pYESPNE)); assay: ITC
[4] = biological target: B2; assay: ITC
[5] = biological target: T3, SH3A-SH2 fragment of Vav1 (596-771); assay: ITC
[6] = biological target: B1; assay: ITC
[7] = biological target: B3; assay: ITC

NC(=O)C[C@H](NC(=O)[C@@H]1CCCN1C(=O)[C@H](CO)NC(=O)[C@H](CCC(=O)O)NC(=O)[C@H](Cc1ccc(OP(=O)(O)O)cc1)NC(=O)[C@H](CC(=O)O)NC(=O)CNC(=O)[C@@H](N)CC(=O)O)C(=O)N[C@@H](CCC(=O)O)C(=O)O [pY128] (HELM PEPTIDE1{D.G.D.[O=C([C@H](Cc1ccc(OP(=O)(O)O)cc1)N[*:1])[*:2]].E.S.P.N.E}$$$$V2.0)
Kd [1]: 1060 nM

NC(=O)C[C@H](NC(=O)[C@@H]1CCCN1C(=O)[C@H](CO)NC(=O)[C@H](CCC(=O)O)NC(=O)[C@H](Cc1ccc(OP(=O)(O)O)cc1)NC(=O)[C@H](CC(=O)O)NC(=O)[C@H](CC(=O)O)NC(=O)[C@@H](N)CCC(=O)O)C(=O)N[C@@H](CC(=O)O)C(=O)O [pY112] (HELM PEPTIDE1{E.D.D.[O=C([C@H](Cc1ccc(OP(=O)(O)O)cc1)N[*:1])[*:2]].E.S.P.N.D}$$$$V2.0)
Kd [2]: 1060 nM

B1
stoichiometry N [3]: 2 SH2 domain:peptide

DGD[pY]ESPNE [SLP76 pY128 peptide]
Kd [4]: 1350 nM
Kd [5]: 1040 nM

B2
stoichiometry N [3]: 2

B3
stoichiometry N [3]: 2

EDD[pY]ESPND [SLP76 pY112 peptide]
Kd [6]: 1640 nM
Kd [4]: 1850 nM
Kd [7]: 1320 nM
